Data from US20190016816A1 (APTEVO RESEARCH AND DEVELOPMENT, published 2019).

T1: human 5T4 on cells (human, UniProt Q13641 32-420)
T1 construct: also called TPBG; hu5T4
T1 sequence: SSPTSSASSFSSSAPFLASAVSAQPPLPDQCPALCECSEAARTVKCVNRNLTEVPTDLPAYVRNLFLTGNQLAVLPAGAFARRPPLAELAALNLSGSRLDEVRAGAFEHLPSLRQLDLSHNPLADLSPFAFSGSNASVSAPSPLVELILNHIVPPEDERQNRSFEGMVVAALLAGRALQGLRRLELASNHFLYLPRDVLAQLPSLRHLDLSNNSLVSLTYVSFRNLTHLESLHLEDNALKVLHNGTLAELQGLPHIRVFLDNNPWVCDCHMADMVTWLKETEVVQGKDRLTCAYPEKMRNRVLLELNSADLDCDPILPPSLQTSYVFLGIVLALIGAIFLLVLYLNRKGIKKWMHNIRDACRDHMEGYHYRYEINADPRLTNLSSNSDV

B1: ALG.APV-210 (bispecific antibody)
chain: EVQLLESGGGLVQPGGSLRLSCAASGFTFSHGSMYWVRQAPGKGLEWVSSISSGSGSTYYADSVKGRFTISHDNSKNTLYLQMNSLRAEDTAVYYCARSSYYGSYYSIDYWGQGTLVTVSSGGGGSGGGGSGGGGSGGGGSDIQMTQSPSSLSASVGDRVTITCRASQSISSYLNWYQQKPGKAPKLLIYAASSLQSGVPSRFSGSGSGTDFTLTISSLQPEDFATYYCQQYYDNLPTFGQGTKLEIKEPKSSDKTHTCPPCPAPEAAGAPSVFLFPPKPKDTLMISRTPEVTCVVVDVSHEDPEVKFNWYVDGVEVHNAKTKPREEQYNSTYRVVSVLTVLHQDWLNGKEYKCAVSNKALPAPIEKTISKAKGQPREPQVYTLPPSRDELTKNQVSLTCLVKGFYPSDIAVEWESNGQPENNYKTTPPVLDSDGSFFLYSKLTVDKSRWQQGNVFSCSVMHEALHNHYTQKSLSLSPGSGGGGSGGGGSGGGGSPSEVQLLESGGGLVQPGGSLRLSCAASGFTFSSYAMSWVRQAPGKCLEWVSAISGSGGSTYYADSVKGRFTISRDNSKNTLYLQMNSLRAEDTAVYYCARYYGGYYSAWMDYWGQGTLVTVSSGGGGSGGGGSGGGGSGGGGSDIQMTQSPSSLSASVGDRVTITCRASQSISSFLNWYQQKPGKAPKLLIYAASSLQSGVPSRFSGSGSGTDFTLTISSLQPEDSATYYCQQTYGYLHTFGCGTKLEIKR
notes: Optimized ADAPTIR scFv-Fc-scFv homodimer with stabilizing disulfide in the 1210 scFv; also called 5T4-CD137 bispecific antibody
B2: biotinylated ALG.APV-210 (bispecific antibody)
chain: B1 chain
notes: also called ALG.APV-210 (biotinylated for FACS detection)
B3: ALG.APV-187 (bispecific antibody)
chain: EVQLLESGGGLVQPGGSLRLSCAASGFTFSHGSMYWVRQAPGKGLEWVSSISSGSGSTYYADSVKGRFTISHDNSKNTLYLQMNSLRAEDTAVYYCARSSYYGSYYSIDYWGQGTLVTVSSGGGGSGGGGSGGGGSGGGGSDIQMTQSPSSLSASVGDRVTITCRASQSISSYLNWYQQKPGKAPKLLIYAASSLQSGVPSRFSGSGSGTDFTLTISSLQPEDFATYYCQQYYDNLPTFGQGTKLEIKSSEPKSSDKTHTCPPCPAPEAAGAPSVFLFPPKPKDTLMISRTPEVTCVVVDVSHEDPEVKFNWYVDGVEVHNAKTKPREEQYNSTYRVVSVLTVLHQDWLNGKEYKCAVSNKALPAPIEKTISKAKGQPREPQVYTLPPSRDELTKNQVSLTCLVKGFYPSDIAVEWESNGQPENNYKTTPPVLDSDGSFFLYSKLTVDKSRWQQGNVFSCSVMHEALHNHYTQKSLSLSPGSGGGGSGGGGSGGGGSPSEVQLLESGGGLVQPGGSLRLSCAASGFTFSSYAMSWVRQAPGKCLEWVSAISGSGGSTYYADSVKGRFTISRDNSKNTLYLQMNSLRAEDTAVYYCARYYGGYYSAWMDYWGQGTLVTVSSGGGGSGGGGSGGGGSGGGGSDIQMTQSPSSLSASVGDRVTITCRASQSISSFLNWYQQKPGKAPKLLIYAASSLQSGVPSRFSGSGSGTDFTLTISSLQPEDSATYYCQQTYGYLHTFGCGTKLEIKR
notes: Optimized ADAPTIR scFv-Fc-scFv homodimer with stabilizing disulfide in the 1210 scFv

Legend:
[1] = molecular target: T1, human 5T4 on cells; assay: flow cytometry, murine CT26 cells expressing human 5T4, labelled anti-human IgG secondary, MFI (mean)
[2] = molecular target: T2, cynomolgus CD137 on cells (cynomolgus macaque, UniProt A9YYE7 24-254); assay: flow cytometry, normalized percentage of CD8 T cells (gated from CD3-stimulated cynomolgus PBMC) bound by the biotinylated antibody, pooled data of 2 exp, n=6 donors
T2 construct: whole, on cells; also called CHO-K1/cynomolgus CD137 cell line; cynomolgus monkey CD137 on CD3-stimulated primary CD8 T cells
T2 sequence (A9YYE7 entry or part of it): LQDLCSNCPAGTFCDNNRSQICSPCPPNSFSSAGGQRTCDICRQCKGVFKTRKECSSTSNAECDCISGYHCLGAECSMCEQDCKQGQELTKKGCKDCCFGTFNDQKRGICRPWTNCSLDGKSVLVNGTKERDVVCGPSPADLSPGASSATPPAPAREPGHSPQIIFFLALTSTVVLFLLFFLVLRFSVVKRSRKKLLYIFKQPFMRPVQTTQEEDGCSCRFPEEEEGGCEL
Experimental: (§1) Following 48 h of incubation with or without CD3, human and cynomolgus PBMC were harvested, pooled, recounted and diluted in FACS buffer (PBS+0.5% BSA, 0.05% NaN₃) to a concentration of 5×10⁶ cells/mL. 50 μL (0.25×10⁶ cells) of cell solution was added to a 96-well FACS staining plate (Falcon #351190). Following 10 min of Fc-blocking in RT using Beriglobin (hIgG, 200 μg/mL), cells were washed in FACS buffer and then incubated for 1 h in 4° C. with 100 μL of the biotinylated ALG.APV-210 or negative control. The antibodies were added in a serial dilution starting either at 5 μg/mL titrating down in a 12 step ⅓ dilution down to […] (exp 1) or 1 μg/mL titrating down in a 12 step ½ dilution down to 0.0005 μg/mL (exp 2). […] Cells were analysed for ALG.APV-210 binding using flow cytometry by gating on viable, single cells expressing CD3 and CD8. MFI values (FMO subtracted) from 2 independent experiments as well as normalized pooled data from 2 experiments and EC₅₀-values were determined and plotted using GraphPad Prism 7, non-linear regression log (agonist) vs. normalized response—variable slope, n=6 donors/group.

[3] = molecular target: T1, human 5T4 on cells; assay: flow cytometry, CT26-hu5T4^high cells, streptavidin-PE, normalized MFI of 2 pooled experiments
Experimental: Prior to the FACS staining, all cell lines were characterized for their 5T4 expression levels using a receptor density kit (Quantum Simply Cellular, anti-human IgG, Bangs Laboratories, Inc). Adherent cell lines were cultured according to their supplier's instructions and were harvested from their cell culture flasks using Trypsin/EDTA, counted in R10 medium in a Burker chamber, and diluted in FACS buffer (PBS+0.5% BSA, 0.05% NaN₃) to a concentration of 4×10⁶ cells/mL. 50 μL (0.20×10⁶) of cell solution was added to a 96-well FACS staining plate (Falcon #351190). Cells were incubated for 20 min in 4° C. with 50 μL of the biotinylated ALG.APV-210 (2× final concentration). The antibodies were added in a serial dilution starting at 20 μg/mL titrating down in a 12 step ½ dilution down to 0.010 μg/mL. Following 2× washing with FACS buffer, cells were incubated for 30 min in 4° C. with 100 μL of a secondary antibody (streptavidin-PE, BD #554061, diluted 1/500). […] Cells were analysed for ALG.APV-210 binding using flow cytometry (FACSVerse) by gating on single cells. MFI values (secondary antibody only subtracted) from 1 out of 2 independent experiments, as well as normalized data and EC₅₀-values of pooled data from 2 experiments were determined and plotted using GraphPad Prism 7, non-linear regression log (agonist) vs. normalized response—variable slope.

[4] = molecular target: T3, human CD137 on cells (human, UniProt Q07011 24-255); assay: flow cytometry, normalized percentage of CD8 T cells (gated from CD3-stimulated human PBMC) bound by the biotinylated antibody, pooled data of 2 exp, n=6 donors
T3 construct: also called 4-1BB; TNFRSF9 (CHO-K1/human CD137 cells)
T3 sequence (Q07011 24-255 limits assumed): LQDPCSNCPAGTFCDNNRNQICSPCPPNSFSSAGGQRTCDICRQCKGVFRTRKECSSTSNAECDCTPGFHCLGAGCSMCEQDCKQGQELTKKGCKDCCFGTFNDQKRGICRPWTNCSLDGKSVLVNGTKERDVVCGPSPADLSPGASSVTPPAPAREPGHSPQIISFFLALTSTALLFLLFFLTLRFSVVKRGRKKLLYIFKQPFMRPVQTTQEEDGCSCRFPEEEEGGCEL
Experimental: as §1

[5] = molecular target: T3, human CD137 on cells; assay: flow cytometry, CHO-K1 cells expressing human CD137, PE anti-human IgG Fc secondary, MFI (median)
Experimental: Binding studies on CHO-K1 cells lines expressing CD137 were performed by standard flow cytometry-based staining procedures. CHO-K1 cells (generated by Alligator) were transfected with human or cynomolgus macaque CD137. A typical experiment would label approximately 100,000 cells per well, in 96-well plates, with a range of 100 nM to 0.05 nM binding molecule in 50 μL of saline buffer with 2% BSA and 2 mM EDTA, for 30 min on ice, followed by washes and incubation with PE-labeled secondary antibody, goat anti-human IgG Fcγ ([…]), for 20 minutes on ice. Signal from bound molecules was detected using a LSR-II™ or a Symphony A3 flow cytometer (BD Biosciences) and analyzed by FlowJo flow cytometry analysis software. Median fluorescence intensity (MFI-median) of bound molecules on live cells was determined after exclusion of doublets cells. Nonlinear regression analysis to determine EC₅₀ values was performed in GraphPad Prism 6® graphing and statistics software.

| Binder | EC50 [1] | Maximum MFI [1] | EC50 [2] | EC50 [3] | EC50 [4] | EC50 [5] |
| --- | --- | --- | --- | --- | --- | --- |
| B1 | 2.7 nM | 1730 |  |  |  |  |
| B2 |  |  | 0.019 nM | 20 nM | 0.027 nM |  |
| B3 | 2.2 nM | 1730 |  |  |  | 0.9 nM |
